From the RNAGym collection of RNA variant scans (doi:10.1093/molbev/msab373)

B1: Azoarcus group I ribozyme (parent)
chain: GUGCCUUGCGCCGGGAAACCACGCAAGGGAUGGUGUCAAAUUCGGCGAAACCUAAGCGCCCGCCCGGGCGUAUGGCAACGCCGAGCCAAGCUUCGGCGCCUGCGCCGAUGAAGGUGUAGAGACUAGACGGCACCCACCUAAGGCAAACGCUAUGGUGAAGGCAUAGUCCAGGGAGUGGCGAAAGUCACACAAACCGG

Variants of: B1
Assay: reverse-splicing fitness (ratio to wild type); higher = more active; in vitro selection; Mg2+ level not given
Summary of the method: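 An in vitro group I ribozyme library with randomized positions was T7-transcribed and gel-purified. In triplicate, 10 pmol RNA in EPPS pH 7.5 was reacted with 50 pmoles of a 30-nt RNA substrate for 1 h at 37 °C across several added MgCl2 levels (1–48 mM), then stopped with EDTA. Products were reverse transcribed from a substrate-complementary primer, PCR-amplified and sequenced (HiSeq 4000). Fitness is a variant's read proportion after selection over that before, normalised to wild type.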

Row | Variant | reverse-splicing fitness
1 | C82U A111C A120G A145C C150A C169A U176A | 0.011
2 | C82U A111C A120G A145C C150A C169A U176C | 0.00587
3 | C82U A111C A120G A145C C150A C169A U176G | 0.00467
4 | C82U A111C A120G A145C C150A C169G | 0.00682
5 | C82U A111C A120G A145C C150A C169G U176A | 0.0204
6 | C82U A111C A120G A145C C150A C169G U176C | 0.0127
7 | C82U A111C A120G A145C C150A C169G U176G | 0.00512
8 | C82U A111C A120G A145C C150A C169U | 0.00688
9 | C82U A111C A120G A145C C150A C169U U176A | 0.0166
10 | C82U A111C A120G A145C C150A C169U U176C | 0.00704
11 | C82U A111C A120G A145C C150A C169U U176G | 0.00441
12 | C82U A111C A120G A145C C150A U176A | 0.00897
13 | C82U A111C A120G A145C C150A U176C | 0.00967
14 | C82U A111C A120G A145C C150A U176G | 0.00348
15 | C82U A111C A120G A145C C150G | 0.007
16 | C82U A111C A120G A145C C150G C169A | 0.00748
17 | C82U A111C A120G A145C C150G C169A U176A | 0.00754
18 | C82U A111C A120G A145C C150G C169A U176C | 0.00509
19 | C82U A111C A120G A145C C150G C169A U176G | 0.00441
20 | C82U A111C A120G A145C C150G C169G | 0.00642
21 | C82U A111C A120G A145C C150G C169G U176A | 0.00836

Row | Variant | reverse-splicing fitness
22 | C82U A111C A120G A145C C150G C169G U176C | 0.00632
23 | C82U A111C A120G A145C C150G C169G U176G | 0.00437
24 | C82U A111C A120G A145C C150G C169U | 0.00662
25 | C82U A111C A120G A145C C150G C169U U176A | 0.00949
26 | C82U A111C A120G A145C C150G C169U U176C | 0.00897
27 | C82U A111C A120G A145C C150G C169U U176G | 0.0039
28 | C82U A111C A120G A145C C150G U176A | 0.00659
29 | C82U A111C A120G A145C C150G U176C | 0.0106
30 | C82U A111C A120G A145C C150G U176G | 0.00269
31 | C82U A111C A120G A145C C150U | 0.00818
32 | C82U A111C A120G A145C C150U C169A | 0.00786
33 | C82U A111C A120G A145C C150U C169A U176A | 0.00813
34 | C82U A111C A120G A145C C150U C169A U176C | 0.00554
35 | C82U A111C A120G A145C C150U C169A U176G | 0.00505
36 | C82U A111C A120G A145C C150U C169G | 0.00662
37 | C82U A111C A120G A145C C150U C169G U176A | 0.0181
38 | C82U A111C A120G A145C C150U C169G U176C | 0.0105
39 | C82U A111C A120G A145C C150U C169G U176G | 0.00492
40 | C82U A111C A120G A145C C150U C169U | 0.00593
41 | C82U A111C A120G A145C C150U C169U U176A | 0.0137
42 | C82U A111C A120G A145C C150U C169U U176C | 0.0072
